# Laboratory results taken from the RNAGym collection of RNA variant scans (doi:10.1073/pnas.2313332121).
# B1: TPR t1 (parent)
# chain: GACCAAUCUGCCCUCAGAGCUCGAGAACAUCUUCGGAUGCAGAGGAGGCAGGCUUCGGUGGCGCGAUAGCGCCAACGUCCUCAACCUCCAAUGCAUCCCACCACAUGAUGAUGCCUGAAGAGCCUUGGUUUUUUG
# Variants of: B1
# Test: polymerase ribozyme fitness, log enrichment relative to wild type (log ratio); higher = more active; in vitro selection for triplet polymerase activity
# Procedure, shortened: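 The heterodimeric triplet polymerase ribozyme's subunits were each mutagenized into PCR-built libraries and transcribed. Every library was selected once, in triplicate, by annealing with a biotinylated primer, the partner subunit and triplets, incubating frozen at −7 °C, gel-excising extended constructs, capturing on streptavidin beads and running RT-PCR. Input and output libraries were Illumina-sequenced, with genotypes kept only at ≥10 input reads and ≥1 read per output. Fitness, from inverse-variance-weighted replicate averages, is the base-2 logarithm of genotype enrichment over wild-type enrichment.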
row,Variant,polymerase ribozyme fitness (log ratio)
1,U14A C94G,-3.05
2,C13U C31U A46G C72U,-4.32
3,C13U G42C,-0.781
4,C13U C79A A90C,-2.88
5,C13U C34A C64U A84C G113U,-4.89
6,C13U C56U C72G C80U C82U C86U U112C,-3.52
7,U14A G122A,-1.5
8,C13U C124A,1.91
9,C13U C73G G117A C124A,0.844
10,U14A C88G C99U C123U U131G U134A,-3.82
11,C13U G47C,-1.18
12,C13U G36A,-0.918
13,U14A G61A A90C A91C,-4.3
14,C13U G47A C82G,-2.07
15,C13U C62G,-0.959
16,C13U C62A,-0.888
17,U14A C49U G71A,-3.73
18,C13U C34A U78G,-3.35
19,C13U C72G U81C A95C A119U,-1.87
20,C13U G47U G117U,-2.08
21,C13U G113U U125C,-1.89
22,U14C G60C U96A,-3.46
23,C13U G36U U133A,-1.43
24,C13U G39U A41G C72U U96G G117A,-3.31

row,Variant,polymerase ribozyme fitness (log ratio)
1,U14C C15U G39A C72G G117A,-1.31
2,C13U U92G,-2.48
3,C13U U14G A68G,-5.25
4,U14G C15G,-5.02
5,U14A U21A U30G G58C C76U U112C A118C,-5.04
6,C13U G52C G60A A95G C98U U126G,-4.8
7,U14A G63U C79U,-3.41
8,C13U C28U C40U A74U C124A,-1.32
9,U14A C49U G60C A103C U112A C123G,-6.39
10,U14G A50C G63C C94A,-3.63
11,C13U G120U,0.513
12,C13U G47A U78C G120A C123U U125A G128A,-0.365
13,C13U U32G G35A G51A C114A G122C,-6.85
14,C13U U33A U125A,-4.68
15,C13U C56A C114U,-1.73
16,C13U C62A A118U G122A,-2.35
17,U14A U30A A66U G69U U92G C94A G117C,-6.34
18,C13U G63A C101U,-0.511
19,C13U G63U C86A U112A,-1.22
20,U14C A111U,-4.43
21,U14C U106A G110A U112A,-3.36
22,C13U G36C A74C,0.0868
23,C13U U130A U133A,-1.2
24,U14A C40U G44C C49A,-3.39

row,Variant,polymerase ribozyme fitness (log ratio)
1,C13U U112A,1.43
2,C13U U112G,1.14
3,C13U G57C U78C,0.238
4,C13U C114A,-1.07
5,C13U C114G,-1.34
6,U14A G93A C102U,-4.36
7,U14A A111C C115A,-5.18
8,U14C G36U C53G G61U,-2.63
9,C13U C53U C114A G120C,-1.1
10,U14A A37G G120A,-0.881
11,U14G A37U A41G G47U C86A U87C,-4.82
12,U14A A91C C115G U133A,-4.89
13,C13U G45A C79G,-1.83
14,C13U G19U A50G A91U,-2.58
15,C13U U109A,-5.03
16,C13U U109G,-4.64
17,C13U U109C,-2.24
18,C13U C28A G47U,-4.54
19,U14A A46C U81C C82U,-3.9
20,U14C C70G C82U U106A,-3.34
21,C13U G52U C85U,-2.32
22,C13U G39C G58A A118U G120U,0.174
23,U14G A91C C97U,-4.05
24,C13U G63C C76A U78A,-6.73

row,Variant,polymerase ribozyme fitness (log ratio)
1,C13U G36A C64U,-0.484
2,C13U G61U U129A G135U,-0.936
3,C13U G39C C72U U106G,-2.03
4,C13U G39A A91G C123A,0.557
5,C13U C80U,-0.427
6,C13U C56U U92G G93C C115A G120A,-0.609
7,C13U G39A,-0.593
8,C13U G93U,-0.472
9,C13U G93A,-0.513
10,C13U C79G A83G C89G,-4.49
11,U14A C15A A41U G44A C82A U92G C123A,-5.11
12,C13U G71U,-0.508
13,U14C A83C,-2.26
14,U14A A18U G60C,-4.66
15,C13U G63U C70G C114A G120C,-0.574
16,C13U G128A,-1.67
17,C13U C85U C86G U106A,-0.767
18,C13U G19C C70U,-2.89
19,U14A G71A,-2.77
20,C13U G69A,-2.03
21,C13U C28G C49U G69U,-1.49
22,C13U C28G,-1.58
23,U14G C40A C62U,-3.06
24,C13U U116C,1.02

row,Variant,polymerase ribozyme fitness (log ratio)
1,C13U C97U,-1.03
2,C13U C97A,-3.93
3,U14A C15U C88U U96C G120U,-1.94
4,C13U C62U A83C C89U,-0.547
5,C13U G42U A90U A95U,-1.89
6,U14G A37C G47A G110U G120U,-5.99
7,C13U G63A U96A,-1.68
8,U14C G93U U112A,-2.43
9,U14A G127U,-3.57
10,C13U G51U,-2.84
11,C13U G51C,-2.27
12,C13U C34U C88U,-4.18
13,C13U C70U,-0.262
14,U14C C53A,-1.96
15,U14G A75U C94U U109C G127C U133G,-4.46
16,C13U G44C A74C A111C,-0.273
17,U14A U32C C82A,-3.24
18,U14C G69U A83U C114G C123G,-1.4
19,C13U G42U G44C C88A,-1.42
20,U14A G42C G110C,-5.7
21,C13U C49A G71A,-0.504
22,U14C C72A A111U,-6.13
23,U14C C56G,-2.27
24,U14A C72U C85A G93A,-3.6

row,Variant,polymerase ribozyme fitness (log ratio)
1,C13U C22U C86U,-4.45
2,C13U U32G,-5.28
3,U14C C104U,-0.978
4,C13U C40U G69U C88G,-2.27
5,C13U G42U G48A,-1.13
6,C13U C85G C123U,0.618
7,C13U U30C A46U,-5.06
8,C13U U21C G36C A50G C56A,-1.18
9,C13U G61U,0.429
10,C13U G17A C62U U78A U81A U112A,-4.61
11,C13U U54A,1.21
12,U14C C49U U130A,-2.74
13,C13U G60A C114A U130C,-0.229
14,C13U C34U G52C,-4.17
15,C13U C102G,-6.43
16,U14A C62G C89U C123A,-3.6
17,U14A G63C A83U C86A U112A U131A,-2.09
18,C13U C73G C82U,-1.5
19,C13U C115U,-0.41
20,U14A U112G,-0.736
21,C13U G57A G69A G110U,-6.08
22,U14C G71C,-2.35
23,C13U G42U C104U,-0.915
24,C13U C76U C86G,-2.13

row,Variant,polymerase ribozyme fitness (log ratio)
1,U14C U132C,-1.36
2,C13U C56U C97G G127A,-4.74
3,C13U C73U G93C U106A A118G,-1.26
4,C13U G39A A103U C123U,-4.74
5,U14G A27G G113A A121G U133A,-1.42
6,U14A G60C C97G C123A,-5.56
7,C13U U21G,0.0383
8,C13U U21C,0.405
9,C13U C64A,-6
10,U14A G25U C34U G52U C56A A90G G93C C114G A121C G135A,-6.59
11,C13U U112A U126G,0.677
12,C13U C72G,-0.128
13,C13U C72A,0.891
14,C13U C85A A91C C104A G120C,-3.62
15,C13U G19A A37G,-2.93
16,U14C C102U,-3.54
17,U14A G47U,-3.55
18,U14A G47C,-2.72
19,C13U G47U C88U A90G U106G,-2.13
20,U14C C70G,-4.01
21,C13U U78A C79A U129G,-3.68
22,U14C C20U G58U C62G,-5.26
23,U14A C70U,-1.67
